Assay results as given in paper PMC11511825.

Target: FUS-eGFP (C-terminally eGFP-tagged Fused in Sarcoma) (UniProt P35637)
Assay: FRET or BRET

FUS-eGFP (C-terminally eGFP-tagged Fused in Sarcoma) (from UniProt P35637 1-526) (natural protein)
apparent homoFRET efficiency (E Homo): 0.7
steady-state fluorescence anisotropy in droplets (loss by homoFRET): 0.08
